Test results: the supplement of paper PMC12855868

B1: library; numbered along this chain (parent)
chain: MAAAGGARLLRAASAVLGGPAGRWLHHAGSRAGSSGLLRNRGPGGSAEASRSLSVSARARSSSEDKITVHFINRDGETLTTKGKVGDSLLDVVVENNLDIDGFGACEGTLACSTCHLIFEDHIYEKLDAITDEENDMLDLAYGLTDRSRLGCQICLTKSMDNMTVRVPETVADARQSIDVGKTS

Variants of: B1
Experiment: scaled log2 fold change in cell abundance, elesclomol vs control (0 = silent mean, 1 = nonsense mean) (scaled log2 ratio); higher = higher viability under elesclomol (loss of FDX1 cuproptosis function)
Settings: glucose 10 mM
Procedure: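 Deep mutational scan of full-length human FDX1: a pooled saturation-mutagenesis ORF library (every residue 2-184 mutated to all 19 amino acids plus stop, and silent codons where available) was expressed by lentivirus in FDX1-knockout ABC1 (14 days) or HEK293T (11 days) cells grown with elesclomol (ES) or DMSO control. Variant abundance came from ORF sequencing. The log2 fold change (ES vs control, mean of duplicates) was centred on the silent-variant mean (0) and scaled to the nonsense-variant mean (1). Higher values mean greater viability under ES, i.e. loss of FDX1 function in cuproptosis.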

[1] = with ABC1 FDX1 KO, elesclomol 5 nM, 14 days
[2] = with HEK293T FDX1 KO, elesclomol 40 nM, 11 days
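Also: variant abundance is its share of total variant reads in each endpoint sample, from next-generation sequencing of the integrated ORF PCR-amplified out of genomic DNA.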

Row | Variant | scaled log2 fold change [1] | scaled log2 fold change [2]
1 | L37G | 0.613 | -0.248
2 | L37P | 0.51 | 1.09
3 | L37F | 0.0336 | 0.00175
4 | L37D | -0.0765 | -0.369
5 | L37E | -0.0101 | -0.121
6 | R31H | -0.603 | 
7 | R31P | 0.561 | -0.0123
8 | R31T | -0.552 | -0.717
9 | R31V | 0.267 | 
10 | R31W | -0.118 | -0.246
11 | R31Q | 0.031 | 0.166
12 | R31N | -0.000941 | 
13 | R31M | 0.66 | 
14 | R31I | 0.762 | 
15 | R31Y | 0.463 | -0.658
16 | R31G | 0.358 | -0.248
17 | R31F | -0.116 | 0.357
18 | R31S | 0.29 | 0.11
19 | R31A | 0.317 | 
20 | R31E | -0.00724 | 
21 | G33L | -0.121 | -1.21
22 | G33Q | -0.173 | -0.043
23 | G33V | 0.127 | 0.731
24 | G33R | -0.26 | -0.362
25 | G33I | 0.161 | 0.713

Row | Variant | scaled log2 fold change [1] | scaled log2 fold change [2]
26 | G33T | 0.154 | 0.176
27 | G33C | -0.0719 | 0.194
28 | G33Y | 0.0588 | 0.657
29 | G33F | 0.0743 | 0.637
30 | G33E | 0.197 | -0.759
31 | G33K | 0.0454 | 0.247
32 | G33P | -0.0501 | 0.139
33 | G33N | 0.0785 | 0.48
34 | G33A | 0.0776 | 0.0796
35 | G33W | -0.0437 | 0.197
36 | G33H | 0.23 | 0.469
37 | G33M | 0.0509 | -0.453
38 | G33S | 0.208 | -0.0845
39 | H26G | -0.196 | -0.699
40 | H26P | -0.00391 | 
41 | H26A | 0.684 | 1.75
42 | H26C | -0.0138 | 
43 | H26F | 0.206 | -0.237
44 | H26R | -0.169 | -0.571
45 | H26K | 0.352 | 
46 | H26Y | 0.147 | -0.00505
47 | H26D | 0.267 | 0.193
48 | H26Q | 0.0786 | 1.39
49 | H26M | 0.23 | 
50 | H26E | 0.356 | 0.955

Row | Variant | scaled log2 fold change [1] | scaled log2 fold change [2]
51 | H26W | 0.101 | -0.281
52 | H26T | 0.206 | 0.037
53 | H26N | 0.169 | -0.198
54 | H26L | 0.346 | 0.304
55 | H26S | 0.241 | 
56 | R23C | 0.413 | 0.458
57 | R23S | -0.477 | 
58 | R23D | 0.199 | 
59 | R23Y | -0.603 | 
60 | R23W | 0.348 | 0.553
61 | R23K | 0.498 | 
62 | R23P | -0.138 | 0.465
63 | R23N | 0.598 | -0.335
64 | R23T | -0.164 | -0.141
65 | R23Q | 0.00392 | 
66 | R23M | 0.474 | -0.139
67 | R23I | 0.309 | 
68 | R23E | 0.00775 | 
69 | G36C | -0.121 | 0.501
70 | G36Y | 0.0493 | -0.0699
71 | G36Q | -0.138 | 0.311
72 | G36D | -0.0689 | 0.737
73 | G36F | -0.16 | -0.239
74 | G36N | 0.0293 | 0.187
75 | G36V | -0.491 | -0.262

Row | Variant | scaled log2 fold change [1] | scaled log2 fold change [2]
76 | G36T | 0.266 | 0.704
77 | G36H | 0.443 | -1.19
78 | G36E | 0.292 | 0.257
79 | G36W | -0.615 | 1.33
80 | G36M | 0.149 | -0.00494
81 | G36L | 0.19 | 0.873
82 | G36K | -0.118 | -0.253
83 | G36S | 0.168 | -0.0207
84 | G36I | 0.0053 | -0.456
85 | G36R | -0.252 | 0.0429
86 | H27D | -0.0235 | -0.507
87 | H27F | 0.196 | 0.363
88 | H27P | -0.143 | 
89 | H27S | 0.273 | 
90 | H27W | -0.436 | 0.305
91 | H27M | 0.0388 | 
92 | H27I | -0.11 | 1.23
93 | H27L | 0.396 | 
94 | H27E | -0.316 | -0.0257
95 | H27A | -0.0135 | 0.337
96 | H27G | 0.0381 | -0.171
97 | H27N | -0.105 | 0.565
98 | H27C | 0.145 | -0.412
99 | H27T | -0.307 | 
100 | H27R | 0.168 | -0.247

Row | Variant | scaled log2 fold change [1] | scaled log2 fold change [2]
101 | H27V | 0.305 | 0.364
102 | H27Q | 0.286 | -0.318
103 | H27K | 0.325 | 0.621
104 | H27Y | -0.231 | 0.0795
105 | G22T | -0.511 | -0.29
106 | G22V | 0.245 | 
107 | G22R | -0.188 | 
108 | G22Y | 0.703 | 0.208
109 | S30M | 0.423 | -0.121
110 | S30V | 0.222 | -0.701
111 | S30D | 0.413 | 0.89
112 | S30R | 0.119 | 
113 | S30F | -0.244 | -0.2
114 | S30N | 0.26 | -0.64
115 | S30E | 0.181 | -0.188
116 | S30C | 0.348 | -0.559
117 | S30T | -0.784 | -0.554
118 | S30K | 0.428 | -0.721
119 | S30I | 0.0124 | -0.232
120 | S30G | -0.403 | 0.208
121 | S30Y | -0.00883 | -0.262
122 | S30H | 0.109 | 0.106
123 | S30A | 0.166 | -0.0965
124 | S30Q | 0.345 | -0.23
125 | S30L | 0.0325 | 
